Assay results: patent US20220041746A1 (Sanofi, published 2022)
Where “and” joins values, the source holds several entries; their conditions need not be identical. Equal entries are not always repeated. Where two headings read alike, the source gives them in different places.

Columns and labels:
[1] = molecular target: T1, human CD38 expressed on the cell surface (human, UniProt P28907 1-300); assay: flow cytometry on SU-DHL-8 cells (SUDHL8)
T1 construct: whole, on cells; also called hCD38-expressing cells; huCD38

[2] = molecular target: T1, human CD38 expressed on the cell surface; assay: flow cytometry on MOLP-8 multiple myeloma cells [Cont.]
[3] = molecular target: T1, human CD38 expressed on the cell surface; assay: flow cytometry on preB::300.19 cells, apparent KD
Experimental: (§1) The recombinant cell line was described by J. Deckket et al. 2014 Clin Cancer Res 20:4574-4583. […] Antibody binding was evaluated after centrifugation and resuspension of cells by adding 200 μL/well PBS 1% BSA and read using Guava® easvCyte™ 8HT Flow Cytometry System. Apparent KD and EC50 values were estimated using BIOST@T-BINDING and BIOST@T-SPEED software, respectively.

[4] = molecular target: T2, cynomolgus monkey CD38 expressed on the cell surface (cynomolgus monkey, UniProt Q5VAN0 1-301); assay: flow cytometry on preB::300.19 cells, apparent KD
T2 construct: whole, on cells; also called cCD38-expressing cells
Experimental: as §1

[5] = molecular target: T3, CD38 isoform A (SEQ ID NO:1) (human, UniProt P28907 45-300); assay: ELISA, plate coated with the CD38 isoform
T3 construct: also called huCD38 isoform A
Experimental: (§2) 96-well plates were coated with either isoform at 0.5 μg/well in PBS and 100 μL/well of antibodies were added to the plate. The plate was incubated at 37° C. for 1 h and washed five times with PBS containing 0.05% Tween-20 (PBS-T). […] Following incubation at 37° C. for 1 h in darkness, plates were washed with PBS-T five times. Antibody binding w as visualized by adding TMB-H2O2 buffer and read at a wavelength of 450 nm. EC50 values were estimated using BIOST@T-SPEED software.

[6] = molecular target: T4, CD38 isoform E (SEQ ID NO:105) (human, UniProt P28907 45-195, limits assumed); assay: ELISA, plate coated with the CD38 isoform
T4 construct: also called huCD38 isoform E
Experimental: as §2

[7] = molecular target: T1, human CD38 expressed on the cell surface; assay: flow cytometry on preB::300.19 cells, apparent KD; remark: listed apart in the source
Experimental: as §1

[8] = molecular target: T2, cynomolgus monkey CD38 expressed on the …; assay: flow cytometry on preB::300.19 cells, apparent KD; remark: listed apart in the source
Experimental: as §1

hCD38-his (SEQ ID NO: 2) [9] = molecular target: T5, hCD38-his (SEQ ID NO: 2) (human, UniProt P28907 45-300); assay: SPR, mAb captured via anti-human Fc, soluble CD38-his injected
T5 construct: His-tagged soluble protein derived from isoform A; also called human CD38-histag; hCD38::Histag
Experimental: (§3) The binding properties of the anti-huCD38 mabs were evaluated using a BIAcore 2000 (BIAcore Inc., Uppsala, Ni). […] The surface was regenerated between injections using 30 μL of 50 mM NaOH-1 M NaCl. Individual sensorgrams wore analyzed using BIAsimulation software.

cCD38-his (SEQ ID NO: 4) [10] = molecular target: T6, cCD38-his (SEQ ID NO: 4) (cynomolgus monkey, UniProt Q5VAN0 46-301); assay: as above
T6 construct: His-tagged soluble protein; also called cyno CD38-histag; cynoCD38::Histag
Experimental: as §3

[11] = molecular target: T2, cynomolgus monkey CD38 expressed on the …; assay: flow cytometry on PreB cynoCD38-expressing cells
hCD38-his (SEQ ID NO: 2) [12] = molecular target: T5, hCD38-his (SEQ ID NO: 2); assay: SPR, mAb captured via anti-human Fc, soluble CD38-his injected; remark: listed apart in the source
Experimental: as §3

cCD38-his (SEQ ID NO: 4) [13] = molecular target: T6, cCD38-his (SEQ ID NO: 4); assay: as above; remark: listed apart in the source
Experimental: as §3

[14] = molecular target: T7, recombinant human CD38 (SPR of Example 4) (human, UniProt P28907 45-300, limits assumed); assay: SPR (column 'KD value against rec. protein by SPR (nM)'); first value of the pair, taken for CD3mid
[15] = molecular target: T1, human CD38 expressed on the cell surface; assay: flow cytometry, 'Apparent KD value against rec. cells by FACS (nM)'; single value of the mid/low row, equal to the EC50 of the CD3mid protein in FIG. 6C
Experimental: as §1, with “Clin.” for “Clin”, “μl/well” for “μL/well”, “easyCyte™” for “easvCyte™”, “BIOST®T-BINDING” for “BIOST@T-BINDING”, “BIOST®T-SPEED” for “BIOST@T-SPEED”

[16] = molecular target: T7, recombinant human CD38 (SPR of Example …); assay: SPR; KD rounded to an integer; first value of the pair, taken for CD3mid
[17] = molecular target: human CD28 (SPR of Example 4) (human, UniProt P10747 19-152, limits assumed); assay: as above
[18] = molecular target: T2, cynomolgus monkey CD38 expressed on the …; assay: flow cytometry on PréB cCD38 cells
Experimental: as §1, with “Clin.” for “Clin”, “μl/well” for “μL/well”, “easyCyte™” for “easvCyte™”, “BIOST®T-BINDING” for “BIOST@T-BINDING”, “BIOST®T-SPEED” for “BIOST@T-SPEED”

[19] = molecular target: T1, human CD38 expressed on the cell surface; assay: flow cytometry on PréB hCD38 cells
Experimental: as §1, with “Clin.” for “Clin”, “μl/well” for “μL/well”, “easyCyte™” for “easvCyte™”, “BIOST®T-BINDING” for “BIOST@T-BINDING”, “BIOST®T-SPEED” for “BIOST@T-SPEED”

[20] = molecular target: T1, human CD38 expressed on the cell surface; assay: flow cytometry on preB::300.19 cells
[21] = molecular target: T2, cynomolgus monkey CD38 expressed on the …; assay: flow cytometry on preB::300.19 cells

B1: mAb1 (antibody, human IgG1, kappa, V domains shown)
VH: QVQLQQSGAELVRSGASVKMSCKASGYTFTSFNMHWVKETPGQGLEWIGYIYPGNGGTNYNQKFKGKATLTADTSSSTAYMQISSLTSEDSAVYFCARTGGLRRAYFTYWGQGTLVTVSS
VL: DIVLTQSPASLAVSLGQRATISCRASESVDSYGNGFMHWYQQKPGQPPKLLIYLASNLESGVPARFSGSGSRTDFTLTIDPVEADDAATYYCQQNKEDPWTFGGGTKLEIKR
notes: also called antiCD38_C2-CD38-1
For B1, the EC50 [1] was 0.24 nM and 0.0366 µg/mL, the EC50 [2] was 0.98 nM and 0.148 µg/mL and the Kd [3] was 0.28 nM. It also gave a Kd [4] of 0.22 nM, an EC50 [5] of 0.11 nM and an EC50 [6] of 0.08 nM. The Kd [7] was 0.28 nM, the Kd [8] was 0.22 nM and the Kd (hCD38-his (SEQ ID NO: 2) [9]) was 0.336 nM. For the same binder, the koff (hCD38-his (SEQ ID NO: 2) [9]) was 0.000266 s⁻¹, the Kd (cCD38-his (SEQ ID NO: 4) [10]) was 0.39 nM and the koff (cCD38-his (SEQ ID NO: 4) [10]) was 9.85e-05 s⁻¹. The EC50 [11] was 0.033 µg/mL and 0.15 nM, the Kd (hCD38-his (SEQ ID NO: 2) [12]) was 0.336 nM and the koff (hCD38-his (SEQ ID NO: 2) [12]) was 0.000266 s⁻¹. The Kd (cCD38-his (SEQ ID NO: 4) [13]) was 0.39 nM and the koff (cCD38-his (SEQ ID NO: 4) [13]) was 9.85e-05 s⁻¹.

B2: CD38VH1×CD28cvn×CD3mid IgG4 (other)
VH 1: QVQLVQSGAEVVKPGASVKVSCKASGYTFTSYAMHWVKEAPGQRLEWIGYIYPGQGGTNYNQKFQGRATLTADTSASTAYMELSSLRSEDTAVYFCARTGGLRRAYFTYWGQGTLVTVSS
VL 1: DIVLTQSPATLSLSPGERATISCRASQSVSSYGQGFMHWYQQKPGQPPRLLIYGASSRATGIPARFSGSGSGTDFTLTISPLEPEDFAVYYCQQNKEDPWTFGGGTKLEIK
VH 2: QVQLQESGPGLVKPSQTLSLTCTVSGFSLSDYGVHWVRQPPGKGLEWLGVIWAGGGTNYNPSLKSRKTISKDTSKNQVSLKLSSVTAADTAVYYCARDKGYSYYYSMDYWGQGTTVTVSS
VL 2: DIVLTQSPASLAVSPGQRATITCRASESVEYYVTSLMQWYQQKPGQPPKLLIFAASNVESGVPARFSGSGSGTDFTLTINPVEANDVANYYCQQSRKVPYTFGQGTKLEIK
VH 3: QVQLVESGGGVVQPGRSLRLSCAASGFTFTKAWMHWVRQAPGKQLEWVAQIKDKSNSYATYYADSVKGRFTISRDDSKNTLYLQMNSLRAEDTAVYYCRGVYYALSPFDYWGQGTLVTVSS
VL 3: DIVMTQTPLSLSVTPGQPASISCKSSQSLVHNNANTYLSWYLQKPGQSPQSLIYKVSNRFSGVPDRFSGSGSGTDFTLKISRVEAEDVGVYYCGQGTQYPFTFGSGTKVEIK
notes: also called CD38VH1×CD28evn×CD3mid; CD38VH1 × CD28cyn × CD3mid IgG4
B2 gave a Kd [14] of 4 nM, a Kd [15] of 4.4 nM and a Kd [16] of 4 nM. The Kd [17] was 18 nM, the EC50 [18] was 7.5 nM and 1.12 µg/mL and the EC50 [19] was 4.4 nM and 0.663 µg/mL. For the same binder, the “fold lower apparent affinity than the parental mAb2 antibody” value [20] was 9 fold and the “fold lower apparent affinity than the parental mAb2 antibody” value [21] was 7.5 fold.
